Measured values as given in the RNAGym collection of RNA variant scans (doi:10.1073/pnas.2313332121).
Variants at the floor of the assay were thinned out.

B1: TPR 5TU (parent)
chain: GGAUCUUCUCGAUCUAACAAAAAAGACAAAUCUGCCACAAAGCUUGAGAGCAUCUUCGGAUGCAGAGGCGGCAGCCUUCGGUGGCGCGAUAGCGCCAACGUUCUCAACUAUGACACGCAAAACGCGUGCUCCGUUGAAUGGAGUUUAUCAUG

Variants of: B1
Assay: polymerase ribozyme fitness, log enrichment relative to wild type (log ratio); higher = more active; in vitro selection for triplet polymerase activity
Procedure, shortened: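 Input and output libraries were sequenced on Illumina after a single in vitro selection round, run in triplicate on PCR-built, transcribed mutant libraries of each subunit of a heterodimeric triplet polymerase ribozyme. Selection annealed libraries to a biotinylated primer, the partner subunit and triplets, incubated them frozen at −7 °C, then gel-excised extended constructs for streptavidin-bead capture and RT-PCR. Genotypes with ≥10 input reads and ≥1 read per output were kept. Fitness is the logarithm, taken in base 2, of genotype enrichment divided by wild-type enrichment, using inverse-variance-weighted replicate averages.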

Variant | polymerase ribozyme fitness (log ratio)
GGAUCUUCUCGCUCUAACAAAAAAGACAAAACUGCCACAAAGCUUGGGAGCAUCUUCGGAUGCAGAGGCGGCAGCCUUAGGUGGCGCGAUAGCGCCAACGUUCUCAACUAUGACACGCAAAACGCGUGCUCCGUUGAAUGGAGUUUAUCAUG [A12C U31A A47G C79A] | ≤ -4.2
GGAUCUUCUCGGUUUAACGAUAAAGACGAAUCUGCCACAAAGCUUGAGAGCAUCUUCGGAUGCACAGGCGGCAGCCUUCGGUGCCGCGAUAGCGCCAACGUUCUCAACUAUGACACGCAAAACUCGUGCUCCGUUGAAUGGACUCUAUCAUG [A12G C14U A19G A21U A28G G65C G84C G124U G143C U145C] | ≤ -4.2
GGAUCUUCUCGGUCUAACAAAAAAGACAAAUCUGCCACAAAGCUUGAGAGCAUCUUCGGAUGCAGAGGCGGCAGCCUUCGGUGGCGCGGUAGCGCCAACGUUCUCAACUAUGACACGCAAAACGCGUGCUCCGUUGAAUGGAGUUUAUCAUG [A12G A89G] | -1.16
GGAUCUUCUCGGUCUAACAAAAAAGACAAAUCUGCCCCAAAGCUUGAGAGCAUCUUCGGAUGCAGAGGCGGCAGCCUUCGGUGGCGUGAUAACGCCAACGUUCUCAACUAUGACACGCUAAACGCGUGCUCCGUUAAAUGGAGUUUAUCAUG [A12G A37C C87U G92A A119U G136A] | -0.359
GGAUCUUCUCGGUCUAACAAAAAAGAAAAAGCUGGCACAAAGCUUGAGAGCAUCUUCGGAUGCAGAGGCGGCAGCCUUCGGUGGAGCGAUAGCGCCCAGGUUCUCAACUAUGACACGCAAAACGCGUGCUCCGUUGAAUGGAGUUUAUAAUG [A12G C27A U31G C35G C85A A97C C99G C149A] | ≤ -4.2
GGAUCUUCUCGCUCUAACAAAAAAGACAAAUCUGCCACAAAGCUUGAGAGCAUCUUCGGAUGCAGAGGCGGCAGCCUUCGGUGACGCGAUAGCGCCAACGUUCUCAACUAUGACACGCAAAACGCGUGCUCCGUUGAAUGGAGUUUAUCAUG [A12C G84A] | -0.118
GGAUCUUCUCGGUCUAACAAAAAAGACAAAUCUGCCACAAAGCUUGAGAGCAUCUUCGGAUGCAGAGGCGGCAGCCUUCGGUGGCGCGAUUGCGCCAACGUUCUGUACUAUGACACGCAAAACGCGUGCUCCGUUGAAUGGAGUUUAUCAUG [A12G A91U C105G A106U] | -4.11
GGAUCUUCUCGGUCUAACAAAAAAGAUAAAUCUGCCACAAAGCUUUAGAGCAUCUUAGGAUGCAGAGGCGGCAGCCUUCGGUGGGGCGAUAGCGCCAACGUUCUCAACUAUGACACGCAAACCGCGUGCUCCGUUGAAUGGAGUUUAUCAUG [A12G C27U G46U C57A C85G A122C] | -3.63
GGAUCUUCUCGGUCUAUCAAAAAAGACAAAUCUGCCACAAAGCUUGAGGGCAUCUUCGGGUGCAGAGGCGGCAGCCUUCGGUGGCGCGAUGGCGCCAACGUUCUCAACUAUGACACGCAAAACGCGUGCUCCGUUGAAUGGAGUUUAUCAUG [A12G A17U A49G A60G A91G] | -2.9
GGAUCUUCUCGCUCUAACAAAAAAGACAAAUCUGCCACAAAGCUUGAGAGCAUCUUCGGAUGCAGAGGCGGCAGCCUUCGGUGGCGCGAGAGCGCCAACGUUCUCAACUAUGACACGCAAAACGCGUGCUCCGUUGAAUGGAGUUUAUCAUG [A12C U90G] | ≤ -4.2
GGAUCUUCUCGCUCUAACAAAAAAUACAAAUCUGCCACAAAGCUUGAGAGCAUCACCGGAUGCAGAGGCGGCAGCCUUCGGUCGCGCGAUAGCGCCAACGUUCUCAACUAUGACACGCAAAACGCGUGCUCCGUUGAAUGGAGUUUAUCAUG [A12C G25U U55A U56C G83C] | ≤ -4.2
GGAUCUUCUCGGUCUAACAAAAAAGACAAAUCUGCCACAAAGCUUGAGAGCAUCUUCGGAUGCAGAGGCGGCUGCCUUCGGUGGCGCGAUAGCGCAAACGUUCUCAACAAUGACAUGCAAAACGCGUGCUCCGUUGAAUGGAGUUUAUCAUG [A12G A73U C96A U109A C116U] | -2.66
GGAUCUUCUCGGUCUAACAAAAAAGACCAAUCUGCCACAAAGCUUGAGAGCAUCUUCGGAUGCAGAGGCGGCAGCCUUUGGCGGCUCAAUAGCGCCAACGUUCUCUACUAUGACACGCAAAACGCGUGUUCCGUUGAAUGGAGUUUAGCAUU [A12G A28C C79U U82C G86U G88A A106U C129U U148G G152U] | ≤ -4.2
GGAUCUUCUCGGUCUAACAAAAAAGACAAAUCUGCCACAAAGCUUGAGAGCAUCUUCGGAUGCAGAGGCGGCAGCCUUCGGUGGCGCGCUAGCGCGAACGUUCUCAACUAUGACACGCAAAACGCGUGCUCCGUUGAAUGGAGUUUAUCAUG [A12G A89C C96G] | -1.66
GGAUCUUCUCGCUCUAACAAAAAAGACAAAUCUGCCACAAAGCUUGAGAACAUCUUCGCAUGCAGAGGCGGCAGCCUUCGGUGGCGCGAUAUCGCCAACGUUCUCAACUAUGACACGCAAAACGCGUGCUCCGUUGAAUGGAGUUUAUCAUG [A12C G50A G59C G92U] | -2.67
GGAUCUUCUCGGUCUCACAAAAAAGACAAAUCUGCCACAAAGCUUGAGAGCAUCUUCGGAUGCAGAGGCGGCAGCCUUCGGUGGCGCGAUAGCGCCAACGUUCUCAACUAUGACACGCUAGACGCGUGCUCCGUCGAAUGGAGUUAAUCGUG [A12G A16C A119U A121G U135C U146A A150G] | -4.12
GGAUCUUCUCGCUCUAACAAAAAAGACAAAUCUGCCACAAAGCUUGAGAGCAUCUUCAGAUGCAGAGGCGGCAGCCUUCGGUGUCGCGAUAGCGCCAACGUUCUCAACUAUGACUCGCAAAACGCGUGCUCCGUUGAAUGGAGUUUAUCAUG [A12C G58A G84U A115U] | -3.83
GGAUCUUCUCGGUCUAACAAAAAAGACACAUCUGGCACAAAGCUUGAGAGCAUCUUCGGAUGCAGAGGCGGCAGCCUUCGGUGGCGCGAUAGCGACAACGUUCUCAACUAUGACACGAAAAACGCGUGCUCCCUUGAAUGGAGUUUAUCAUG [A12G A29C C35G C95A C118A G133C] | ≤ -4.2
GGAUCUUCUCGCUCUAACAAAAAAGACAAAUCUGCCACAAAGCUUGAGAGCAUCUUCGGAUGCAGAGGCGGCAGCCUUCGGUGGCGCGAGAGCGCCAACGUUCUCAGCUAUGACACGCAAAACGCGUGCUCCGUUGAGUGGAGUUUAUCAUG [A12C U90G A107G A138G] | ≤ -4.2
